Test results as given in patent US20120077730A1.

Target: human C5a receptor (C5aR) (human) (UniProt P21730)
Experiment: cell-based or functional assay

UniProt P21730, sequence (P21730 whole entry): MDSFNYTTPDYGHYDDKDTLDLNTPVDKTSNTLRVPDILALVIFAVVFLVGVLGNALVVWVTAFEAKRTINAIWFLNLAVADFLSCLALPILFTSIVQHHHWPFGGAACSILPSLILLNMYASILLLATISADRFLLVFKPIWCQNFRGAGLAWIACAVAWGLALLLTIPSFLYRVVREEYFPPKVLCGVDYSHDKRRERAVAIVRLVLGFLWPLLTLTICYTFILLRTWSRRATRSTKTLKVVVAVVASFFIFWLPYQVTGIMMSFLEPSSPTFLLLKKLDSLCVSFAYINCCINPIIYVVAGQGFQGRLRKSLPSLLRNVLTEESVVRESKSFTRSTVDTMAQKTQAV

Substance | Chemotaxis IC50 [µg/mL] | C5aR blocking activity relative to wt CHIPS1-121 (% of wt CHIPS1-121)
Wild-type (Wt) CHIPS1-121 (from UniProt A6QIG7 29-149) | 0.1 | 
CHIPS variant clone 376 (ADC-1004; CHIPS ΔN/C format) (from UniProt A6QIG7 31-113) | 0.5 | > 25
CHIPS ΔN/C (CHIPS31-113) (from UniProt A6QIG7 59-141) | 0.5 | 
